Changes are numbered by the printed parent chain. Names and notes keep the numbering of the source.

One assay deals with T1, Cyno Cadherin-19 (cynomologous monkey (Macaca …, UniProt Q9H159 44-772 (human entry))).
T1 construct: also called cynomologous monkey CDH-19
T1 chain: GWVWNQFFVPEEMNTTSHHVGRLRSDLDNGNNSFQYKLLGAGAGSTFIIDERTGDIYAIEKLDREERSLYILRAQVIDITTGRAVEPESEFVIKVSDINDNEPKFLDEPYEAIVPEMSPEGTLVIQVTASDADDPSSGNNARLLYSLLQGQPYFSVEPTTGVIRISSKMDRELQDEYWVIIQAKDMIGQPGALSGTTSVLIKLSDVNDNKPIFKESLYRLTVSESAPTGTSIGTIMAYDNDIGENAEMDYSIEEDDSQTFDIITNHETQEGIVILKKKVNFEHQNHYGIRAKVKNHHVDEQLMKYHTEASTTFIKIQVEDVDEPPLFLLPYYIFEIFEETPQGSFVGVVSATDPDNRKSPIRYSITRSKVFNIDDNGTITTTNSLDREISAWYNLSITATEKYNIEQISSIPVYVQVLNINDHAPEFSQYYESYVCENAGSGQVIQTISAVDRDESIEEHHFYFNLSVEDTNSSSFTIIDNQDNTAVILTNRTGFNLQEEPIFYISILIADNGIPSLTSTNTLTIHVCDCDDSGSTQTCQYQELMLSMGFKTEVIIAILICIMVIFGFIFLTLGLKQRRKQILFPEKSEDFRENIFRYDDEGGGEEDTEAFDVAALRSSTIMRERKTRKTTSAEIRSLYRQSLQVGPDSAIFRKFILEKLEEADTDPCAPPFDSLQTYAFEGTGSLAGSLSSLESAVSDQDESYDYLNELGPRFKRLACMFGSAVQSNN
Put plainly: FACS, recombinant cynomologous CDH-19. Background: Flow cytometry measures light scatter and fluorescence of single cells or particles in a stream.

The target in assay [1] is T2, rhCDH19(1-43)::FLAG::rhCDH19(44-141)::raCDH19(140-247)::rhCDH19(250-772) (construct V, ra EC2) (rhesus macaque/rat chimera, UniProt Q9H159 44-772 (human entry)).
T2 construct: leader (1-43 of the entry) left out
T2 chain: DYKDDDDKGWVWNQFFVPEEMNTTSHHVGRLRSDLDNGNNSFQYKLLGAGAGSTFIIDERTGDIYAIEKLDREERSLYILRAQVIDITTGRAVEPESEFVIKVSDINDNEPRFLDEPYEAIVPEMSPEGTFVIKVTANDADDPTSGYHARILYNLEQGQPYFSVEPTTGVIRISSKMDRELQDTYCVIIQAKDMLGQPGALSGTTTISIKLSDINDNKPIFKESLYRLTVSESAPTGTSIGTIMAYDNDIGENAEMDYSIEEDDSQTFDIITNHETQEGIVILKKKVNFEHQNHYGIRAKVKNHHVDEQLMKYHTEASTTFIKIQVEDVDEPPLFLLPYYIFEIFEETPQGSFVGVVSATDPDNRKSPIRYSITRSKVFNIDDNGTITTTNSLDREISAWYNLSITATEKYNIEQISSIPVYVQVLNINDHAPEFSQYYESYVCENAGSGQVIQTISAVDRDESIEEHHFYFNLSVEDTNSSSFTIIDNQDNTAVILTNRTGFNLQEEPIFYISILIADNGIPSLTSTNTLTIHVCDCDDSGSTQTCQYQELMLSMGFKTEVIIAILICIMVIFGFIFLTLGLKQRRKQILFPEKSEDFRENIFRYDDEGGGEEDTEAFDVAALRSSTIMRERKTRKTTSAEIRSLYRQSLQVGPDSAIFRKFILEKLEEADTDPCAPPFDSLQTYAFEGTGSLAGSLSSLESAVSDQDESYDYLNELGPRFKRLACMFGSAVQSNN
Put plainly: flow cytometry, transfected 293T cells, 2 mM CaCl2.
Experimental: (§1) The following binding assay was completed in presence of 2 mM CaCl₂). […] Cells were then washed one time and the amount of cell associated Alexa647-labelled Ab was quantitated by flow cytometry. The experiments included mock transfected controls.

Assay [2] concerns the target T3, huCDH19(44-249)::muCDH19(248-770) with Flag tag (construct C, Hu EC1-2) (human/mouse chimera).
T3 construct: leader left out; the entry starts at residue 44; also called C137896
Nature of the assay: flow cytometry, transfected 293T cells.
Text: (§2) The experiment included assaying the anti-CDH19 antibodies against mouse Cadherin19 to determine suitability for binning on these human/mouse chimeras.

The target of assay [3] is T4, huCDH19(44-141)::muCDH19(140-770) with Flag tag (construct B, Hu EC1) (human/mouse chimera).
T4 construct: leader left out; the entry starts at residue 44; also called C137897
Nature of the assay: flow cytometry, transfected 293T cells.
Text: as §2

The next assay deals with T5, Human Cadherin-19 (human, UniProt Q9H159 44-772).
T5 construct: also called CDH19; huCDH19
Nature of the assay: FACS, endogenous CDH-19 on CHL-1 and Colo699 tumor cells.

Assay [4] concerns the target T6, muCDH19(44-770)::huCDH19(271) with leader and FLAG (construct Z) (human/mouse chimera).
T6 construct: leader (1-43 of the entry) left out
T6 chain: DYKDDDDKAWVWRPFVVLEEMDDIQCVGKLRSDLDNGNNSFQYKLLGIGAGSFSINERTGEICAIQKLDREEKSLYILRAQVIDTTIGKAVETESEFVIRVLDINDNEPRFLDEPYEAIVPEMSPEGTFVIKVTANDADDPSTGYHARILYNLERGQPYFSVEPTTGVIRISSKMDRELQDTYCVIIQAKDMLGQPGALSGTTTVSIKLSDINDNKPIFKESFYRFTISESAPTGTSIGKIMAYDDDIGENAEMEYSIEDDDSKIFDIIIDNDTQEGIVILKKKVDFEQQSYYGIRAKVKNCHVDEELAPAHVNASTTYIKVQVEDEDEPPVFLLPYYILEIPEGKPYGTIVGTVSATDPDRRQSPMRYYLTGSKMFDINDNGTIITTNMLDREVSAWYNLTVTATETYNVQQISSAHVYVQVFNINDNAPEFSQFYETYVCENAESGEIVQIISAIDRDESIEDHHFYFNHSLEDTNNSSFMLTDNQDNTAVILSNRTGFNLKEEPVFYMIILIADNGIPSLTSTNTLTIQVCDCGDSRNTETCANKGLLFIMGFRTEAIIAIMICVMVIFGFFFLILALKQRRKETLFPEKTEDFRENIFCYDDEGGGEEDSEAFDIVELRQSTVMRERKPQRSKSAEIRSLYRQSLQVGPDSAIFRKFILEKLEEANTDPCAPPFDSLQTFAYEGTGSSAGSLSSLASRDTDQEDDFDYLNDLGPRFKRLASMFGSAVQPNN
Nature of the assay: flow cytometry, transfected 293T cells, 2 mM CaCl2.
Experimental: as §1

Experimental for Human Cadherin-19: FACS binding assays were performed to evaluate the binding of the anti-Cadherin-19 receptor specific antibodies to endogenous Cadherin-19 receptor expressed on the CHL-1 tumor cell lines.
FACs assays were performed by incubating hybridoma supernatants with 10,000 to 25,000 cells in PBS/2% Fetal bovine serum/2 mM Calcium Chloride at 4° C. for one hour followed by two washes with PBS/2% Fetal bovine serum/2 mM Calcium Chloride. Cells were then treated with florochrome-labeled secondary antibodies at 4° C. followed by one wash. The cells were resuspended in 50 μl of PBS/2% FBS and antibody binding was analyzed using a FACSCalibur™ instrument.

B1: hu anti-<huCDH19> 4A9 (Ab ID 13589) (antibody, human IgG1, lambda, V domains shown)
VH: QVQLQESGPGLVKPSETLSLTCTVSGGSISGYYWSWIRQPPGKGLEWFAYFSYSGSTNYNPSLKSRVTLSVDTSKNQFSLKLSSVTAADTAVYYCARNWAFHFDFWGQGTLVTVSS
VL: QSVLTQPPSVSGAPGQRVTISCTGSSSNIGTGYAVHWYQQFPGTAPKLLIYGNNNRPSGVPDRFSGSKSGTSASLAITGLQAEDEADYYCQSYDSRLSGWVFGGGTKLTVLG
notes: huIgG1z / huLLC-C1; Bin 1
With B1, the binding result with Cyno Cadherin-19 is listed as “binds”; in assay [1], “no binding (tested: 5 ug/ml)”; in assay [2], “binds”; in assay [3] it was “binds”; with Human Cadherin-19 it was “binds”.

B2: hu anti-<huCDH19> 4B10 (Ab ID 13590) (antibody, V domains shown)
VH: QVQLVESGGGVVQPGRSLRLSCAASGFTFSSYDMHWVRQAPGKGLEWVAVISYDGTNEYYADSVKGRFTISRDTSKNTLYLQMNSLRAEDTAVYYCARERYFDWSFDYWGQGTLVSVSS
VL: EIVLTQSPGTLSLSPGERATLSCRASQSVSNTYLAWYHQRPGQAPRLLIYGASSRATGIPDRFSGSGSGTDFALTISSLEPEDFAVYYCQQYSNSWTFGQGTKVEIKR
notes: huIgG1z / huKLC; Bin 4
In the case of B2, the binding result in the assay with Cyno Cadherin-19 is listed as “binds”; with Human Cadherin-19, “binds”; in assay [4], “no binding (tested: 5 ug/ml)”.

B3: anti-CDH19 antibody 2G6 (Ab ID 13588) (antibody, human IgG1, lambda, V domains shown)
VH: QVQLVESGGGVVQPGRSLRLSCAASGFTFSSYGMHWVRQAPGKGLEWVAFIWYDGSNKYYADSVKDRFTISRDNSKNTLYLQMKSLRAEDTAVYYCARRAGIIGTIGYYYGMDVWGQGTTVTVSS
VL: SYELTQPPSVSVSPGQTASITCSGDRLGEKYTCWYQQRPGQSPLLVIYQDTKRPSGIPERFSGSNSGNTATLTISGTQAMDEADYYCQAWDSSTVVFGGGTKLTVLG
notes: Bin 4
In the case of B3, the binding result (with Cyno Cadherin-19; in assay [2]; in assay [3]; with Human Cadherin-19; in assay [4]) was “binds” throughout.

B4: hu anti-<huCDH19> 26D1.1 (Ab ID 13882) (antibody, human IgG1, lambda, V domains shown)
VH: QVQLVQSGAEVKKPGASVKVSCKASRYTFTSYYMSWVRQAPGQGLEWMGIIHPSGGDTTYAQKFQGRVTMTGDTSTSTVYMELSSLRSEDTAVYYCARGGIKLWLHFDYWGQGTLVTVSS
VL: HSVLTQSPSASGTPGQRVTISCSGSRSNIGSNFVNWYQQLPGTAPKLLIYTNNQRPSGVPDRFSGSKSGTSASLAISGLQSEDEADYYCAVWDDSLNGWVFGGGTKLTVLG
notes: huIgG1z / huLLC-C2; Bin 2
Take B4: the binding result with Cyno Cadherin-19 was “binds”; in assay [1], “no binding (tested: 5 ug/ml)”; in assay [2] it was “binds”; in assay [3], “binds”; in the assay with Human Cadherin-19 it was “binds”.

B5: hu anti-<huCDH19> 25F8.1 (1-469)(F90Y) VH::huIgG1z + 25F8.1 (1-235)(K45Q,S102A,D111E) VL::huLLC-C2 (Ab ID 14096) (antibody, V domains shown)
VH: B4 VH with R26G, M34I, S35H, H52N, D57S, T59R, G72R, K102Q
VL: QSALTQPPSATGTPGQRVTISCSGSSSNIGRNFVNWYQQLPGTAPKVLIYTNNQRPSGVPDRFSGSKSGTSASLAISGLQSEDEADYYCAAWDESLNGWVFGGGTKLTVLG
notes: Engineered variant of 25F8; the entries already carry the changes; Bin 2
For the molecule B5, the binding result in assay [1] is recorded as “no binding (tested: 5 ug/ml)”.

B6: anti-CDH19 antibody 4A2 (Ab ID 13592) (antibody, human IgG1, kappa, V domains shown)
VH: QVQLQESGPGLVKPSQTLSLTCTVSGGSISSSGYYWSWIRQHPGKGLEWIGYIYYTGSAYYNPSLKSRVTISVDTSKNQFSLKLSSVTAADTAVYYCARDGSSGWYFQYWGQGTLVTVSS
VL: EIVLTQSPGTLSLSPGERATLSCRASRNISSSYLAWYQQKPGQAPRLLIYGPSSRATGIPDRFSGSGSGTDFTLTISRLEPEDFTVYYCQQYGSSFTFGPGTKVDIKR
notes: Bin 4
As for B6, the binding result with Cyno Cadherin-19 is given as “binds”.

The record behind these values is patent US20220127354A1 (Amgen, published 2022).
